The values below come from patent publication US20220364055A1 (Novartis, published 2022).

In the assay the target is T1, BCMA (TNFRSF17) (human, UniProt Q02223 1-184, limits assumed).
T1 construct: Member of a commercial human plasma membrane protein array; the construct is not described
T1 sequence (looked up): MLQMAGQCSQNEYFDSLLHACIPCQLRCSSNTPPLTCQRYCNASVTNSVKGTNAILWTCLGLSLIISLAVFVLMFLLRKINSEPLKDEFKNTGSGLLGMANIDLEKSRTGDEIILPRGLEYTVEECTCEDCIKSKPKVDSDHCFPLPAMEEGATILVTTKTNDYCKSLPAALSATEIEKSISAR
In words: commercial human plasma membrane protein array.

B1: anti-human BCMA single chain antibody variable fragment (scFv) (PI61) (scFv)
scFv: QVQLQESGGGVVQPGRSLRLSCAASGFTFSSYGMHWVRQAPGKGLEWVAVISYDGSNKYYADSVKGRFTISRDNSKNTLYLQMNSLRAEDTAVYYCGGSGYALHDDYYGLDVWGQGTLVTVSSGGGGSGGGGSGGGGSQSALTQPASVSGSPGQSITISCTGTSSDVGGYNYVSWYQQHPGKAPKLMIYDVSNRPSGVSNRFSGSKSGNTASLTISGLQAEDEADYYCSSYTSSSTLYVFGSGTKVTVL
notes: also called PI61 scFv
Take B1: the binding result is reported as “binds”.
